Target: HLA-A*02:01
Experiment: IEDB peptide-MHC binding, purified MHC/competitive/fluorescence; ≥ and ≤ were set here for values at or beyond the usual limits of such assays
Conditions: source organism: Homo sapiens

IC50 [µM]	Sequence
5.02	AAAFVNQHL
≥ 100	AAAFVNQHLC
≥ 100	AAFVNQHLCG
≥ 100	AEDLQVGQV
≥ 100	AEDLQVGQVE
≥ 100	AFVNQHLCG
≥ 100	AFVNQHLCGS
≥ 100	AGSLQPLAL
≥ 100	AGSLQPLALE
≥ 100	ALLALWGPD
0.88	ALWGPDPAA
≥ 100	CCTSICSLY
≥ 100	CCTSICSLYQ
≥ 100	CTSICSLYQ
≥ 97.7	CTSICSLYQL
≥ 100	DLQVGQVEL
≥ 100	DLQVGQVELG
≥ 100	DPAAAFVNQ
≥ 100	DPAAAFVNQH
≥ 100	EAEDLQVGQ
≥ 100	EDLQVGQVE
≥ 100	EDLQVGQVEL
≥ 100	ELGGGPGAG
≥ 100	ELGGGPGAGS

IC50 [µM]	Sequence
≥ 100	EQCCTSICS
≥ 100	EQCCTSICSL
≥ 100	ERGFFYTPK
≥ 100	GAGSLQPLAL
≥ 100	GGGPGAGSL
≥ 100	GGGPGAGSLQ
≥ 100	GGPGAGSLQ
≥ 100	GGPGAGSLQP
≥ 100	GIVEQCCTS
≥ 100	GPDPAAAFV
≥ 100	GPDPAAAFVN
≥ 100	GPGAGSLQP
≥ 100	GQVELGGGP
≥ 100	GQVELGGGPG
≥ 100	GSLQPLALE
≥ 100	GSLQPLALEG
≥ 100	ICSLYQLEN
≥ 100	ICSLYQLENY
≥ 100	IVEQCCTSI
≥ 100	LALEGSLQK
≥ 100	LALLALWGP
≥ 100	LALWGPDPA
≥ 100	LGGGPGAGS
≥ 100	LGGGPGAGSL

IC50 [µM]	Sequence
≥ 100	LLALLALWG
29.6	LLALLALWGP
1.96	LLALWGPDPA
1.37	LLPLLALLA
5.84	LLPLLALLAL
11.8	LPLLALLAL
≥ 100	LPLLALLALW
≥ 100	LQPLALEGS
≥ 100	LQPLALEGSL
≥ 100	LQVGQVELG
≥ 100	LQVGQVELGG
≥ 100	LWGPDPAAA
≥ 100	LWGPDPAAAF
≥ 100	LYQLENYCN
≥ 100	PAAAFVNQH
≥ 100	PAAAFVNQHL
≥ 100	PDPAAAFVN
≥ 100	PDPAAAFVNQ
≥ 100	PGAGSLQPL
≥ 100	PGAGSLQPLA
≥ 100	PLALEGSLQ
≥ 100	PLALEGSLQK
≥ 100	PLLALLALW
43.5	PLLALLALWG

IC50 [µM]	Sequence
≥ 100	QCCTSICSLY
≥ 100	QPLALEGSL
≥ 100	QPLALEGSLQ
≥ 100	QVELGGGPG
≥ 100	QVELGGGPGA
≥ 100	QVGQVELGG
≥ 100	QVGQVELGGG
≥ 100	SICSLYQLE
≥ 100	SICSLYQLEN
≥ 88	SLQPLALEGS
≥ 100	SLYQLENYCN
≥ 100	TSICSLYQL
≥ 100	TSICSLYQLE
≥ 100	VELGGGPGA
≥ 100	VELGGGPGAG
≥ 100	VEQCCTSIC
≥ 100	VEQCCTSICS
≥ 100	VGQVELGGG
≥ 100	VGQVELGGGP
≥ 100	WGPDPAAAF
4.46	WGPDPAAAFV

From the Immune Epitope Database (IEDB)
